Results: patent US20230250168A1 (MABWELL SHANGHAI BIOSCIENCE, published 2023)
Changes are numbered by the printed parent chain.

B1: 52E22-hz12 (antibody, human IgG1, V domains shown)
VH: QIQLVQSGSELKKPGASVKVSCKASGYTLTNYGMNWVRQAPGQGLEWMGWIRPNTGEPTYAEDFKGRFVFSLDTSVATAYLQITSLKAEDTAVYYCARLYRGNTLDNWGQGTLVTVSS
VL: DIVMTQSPDSLAVSLGERATINCKSSQNLLSSGNQRNYLTWYQQKPGQPPKLLIYWASTRESGVPDRFSGSGSGTDFTLTISSLQAEDLAVYYCQQGYSFPFTFGQGTKLEIK
notes: Humanized; also called 52E22-hz12 IgG; 52E22-12 IgG
B2: murine antibody 43L6 (antibody, V domains shown)
VH: QVQLKESGPDLVAPSQSLSLTCSVSGFSLTSYGIHWVRQPPGKGLEWLVVIWSDGRTTYNSGLKSRLSISKDNSKSQVLLKMNSLRTDDTAIYYCVRHPAFGPHAMDYWGQGTSVTVSS
VL: DIVMTQAAPSVPVTPGESVSISCRSSKSLLNSNGNTYLYWFLQRPGQSPQLLIYRMSNLASGVPDRFSGSGSGTDFTLRISRVEAGDVGVYYCMQYLEYPVTFGAGTKLELK
notes: Mouse hybridoma antibody (supernatant)
B3: murine antibody 48G12 (antibody, V domains shown)
VH: EVQLRQSGPELVKPGASVKMSCKASGYTFTTYIINWVKQKPGQGLEWIGYINPYNDDTRYNERVKGKATLTSDKSSSTAYMELSSLTSEDSAVYYCARFYFGNSFTYWGQGTLVTVSA
VL: DIVMTQSPSSLPVTVGERVTMTCKSSQGLFNSGNQRNYLTWYQQKPGQPPKLLIYWASTRESGVPDRFTGSGSGTDFTLTISSVQAEDLAIYYCQNNYIYPLTFGAGTKLELK
notes: as for B2
B4: murine antibody 50C14 (antibody, V domains shown)
VH: B3 VH with D57G, Y100H
VL: B3 VL with V15T, R18K, S32N, T69I, Y100F
notes: as for B2
B5: murine antibody 46J05 (antibody, V domains shown)
VH: DVQLVESGGGLVQPGGSRKLSCAASGFTFSRFGMHWVRQAPKKGLEWVAYISSGSNTIYYADTVKGRFTISRDNPKNTLFLQTTSLRSEDTAIYYCGRLGFYGNSFDHWGQGTLVTVSA
VL: NILMTQSPSSLTVTAGEKVTMNCKSSQSLLNGGNQRNYLTWYQQKAGQPPKLLIYWASTRESGVPDRFTGGGSGTDFTLTISSVQAEDLALYYCQNSYYYPLTFGAGTKLELK
notes: as for B2
B6: murine antibody 20L17 (antibody, V domains shown)
VH: DVQLVESGGGLVQPGGSRKLSCAASGFTFSSFGMHWVRQAPEKGLEWVAYISSGSSTIYYPDTVKGRFTVSRDNPKNTLFLQMTSLRSEDTAMYYCVRLGPRGNVMDHWGQGTSVTVSS
VL: DIVMTQSPSSLTVTAGEKVTMSCKSSQSLLNSGNQRNYLTWYQQKPGQPPKLLIYWASTRESGVPDRFTGSGSGTDFTLTISSVQAEDLAVYYCQNVYFYPLTFGTGTKLELR
notes: as for B2
B7: 8K13-hz00 (antibody, human IgG1, V domains shown)
VH: QVQLVQSGAEVKKPGSSVKVSCKASGYAFSNYWMNWVRQAPGQGLEWMGQIYPGNGDTKYSGKFNSRVTITADESTSTAYMELSSLRSEDTAVYYCARFYYGNVMDYWGQGTLVTVSS
VL: B1 VL with N28T, S31N, S32G, R36K, L89V, Q96N, F100Y, F102L
notes: Humanized (direct CDR graft)
B8: 8K13-hz11 (antibody, V domains shown)
VH: B7 VH with E74K, S77N
VL: B1 VL with M4L, N28T, S31N, S32G, R36K, Q96N, F100Y, F102L
B9: 8K13-xiIgG (antibody, V domains shown)
VH: QVHLQQSGAELVRPGSSVKISCKASGYAFSNYWMNWVRQRPGQGLEWIGQIYPGNGDTKYSGKFNSKDTLTADKSSNTAYMQLNSLTSEDSAVYFCARFYYGNVMDYWGQGTSVTVSS
VL: DIVLTQSPSSLTVTAGEKVTMSCKSSQTLLNGGNQKNYLTWYQQKSGQPPKLLIYWASTRESGVPDRFTGSGSGTDFTLTISSVQAEDLAVYYCQNGYSYPLTFGVGTKLELKR
notes: Murine variable regions on human IgG1 / kappa constant regions; also called 8K13 chimeric antibody
B10: 52E22-xiIgG (antibody, V domains shown)
VH: QIQLVQSGPELKKPGETVKISCKASGYTLTNYGMNWVRQAPGKGLKWMGWIRPNTGEPTYAEDFKGRFVFSLETSAATAYLQITNLKSEDTSTYFCARLYRGNTLDNWGQGTSVIVSS
VL: DIVMTQSPSSLTVTTGEKVTMSCKSSQNLLNSGNQRNYLTWYQQKPGQSPKLLIYWASTRESGVPYRFTGSGSGTDFTLTISSVQTDDLAIYYCQNGYSFPFTFGSGTKLEIKR
notes: Murine variable regions on human IgG1 / kappa constant regions; also called 52E22 chimeric antibody
B11: 52E22-hz00 (antibody, human IgG1, V domains shown)
VH: B1 VH with I2V, A77S, T84C
VL: B1 VL with S31N, L89V, Q96N
notes: Humanized (direct CDR graft)
B12: 52E22-hz11 (antibody, human IgG1, V domains shown)
VH: B1 VH
VL: DIVMTQSPDSLAVSLGERATINCKSSQNLLNSGNQRNYLTWYQQKPGQPPKLLIYWASTRESGVPDRFSGSGSGTDFTLTISSLQAEDLAVYYCQNGYSFPFTFGQGTKLEIKR
notes: Only the position of the reverse mutation is printed; copies: 2 + 2
B13: 43B5-xiIgG (antibody, V domains shown)
VH: DVQLQESGPDLVKPSQSLSLTCTVSGYSISGAYNWHWIRQFPGNKLEWLAYMQYSGSSNYNPSFKSRISISRDTSKNQFFLQLKSVTTEDTATYYCARMYNGNSFLYWGQGTLVTVSA
VL: DIVMTQSPSSLTVTAGEKVTMNCKSSQSLFNSGNQKNYLTWYQQKPGQPPRLLIYWASTRESGVPDRFTGSGSGTDFTLTISSVQAEDLSLYYCQNSYSYPLTFGAGTKLELKR
notes: murine variable regions on human IgG1 / kappa constant regions; also called 43B5 chimeric antibody
B14: 46J05-xiIgG (antibody, V domains shown)
VH: B5 VH
VL: B13 VL with D1N, V3L, F30L, S32G, K36R, P46A, R51K, S71G, S90A, S99Y
notes: murine variable regions on human IgG1 / kappa constant regions; also called 46J05 chimeric antibody

Target: T1, human CLDN18.2 expressed on cell surfaces (human, UniProt P56856-2 1-261)
Assay: cell-based or functional assay

Row | Binder | CDC EC50, CHOK1 cells stably expressing human CLDN18.2 (CCK-8) [nM]
1 | B1 | 2.08

Target: T1, human CLDN18.2 expressed on cell …
Assay: cell-based or functional assay
Remark: another data set of the same source

Row | Binder | ADCC reporter EC50 (Jurkat NFAT-luciferase effector cells), CHOK1 target cells [nM]
2 | B1 | 0.567

Target: T1, human CLDN18.2 expressed on cell …
Assay: FACS of hybridoma supernatants on CHOK1 cells
Procedure: Balb/c mice were immunized with CHOK1 cells stably expressing human CLDN18.2 protein on cell surfaces. One month later, sera from the mice were analyzed by flow cytometry (FACS), and spleens were taken from mice having high antibody titers in sera. The spleen cells isolated by standard methods were fused with myeloma cells P3X63Ag8.653 using PEG or electrofusion methods. The fused hybridoma cells were seeded in 384 well plates, and after 10-14 days of culture, supernatants obtained were analyzed by FACS for antibody secretion by the hybridoma cells. Several clones were obtained that were able to bind to CHOK1 cells stably expressing human CLDN18.2 protein on cell surfaces and were not able to bind to CHOK1 cells stably expressing human CLDN18.1 protein on cell surfaces. Single cells of the obtained clones were obtained by Limiting Dilution, and each of the monoclonal hybridoma cell clones obtained after being diluted three times secreted only one antibody.

Row | Binder | binding result
3 | B2 | binds
4 | B3 | binds
5 | B4 | binds
6 | B5 | binds
7 | B6 | binds

Target: T2, antigen human CLDN18.2, His-tagged (human, UniProt P56856-2 1-261, limits assumed)
T2 construct: Recombinant antigen used in the Fortebio assay (His-tagged, captured on NTA probe); also called His-tagged antigen; not shown: His tag
Assay: BLI (Fortebio), His-tagged antigen on NTA probe; ratio to 8K13-xiIgG
Procedure: (§1) The binding kinetic parameters of the chimeric antibodies and the humanized antibodies thereof to the antigen human CLDN18.2 were analyzed by a Fortebio (BLITZ pro1.1.0.28) instrument. Before performing the assay, an NTA bioprobe was soaked in PBS for 10 min, and the probe was then placed in PBS containing 100 nM antigen for 300 s to capture the His-tagged antigen. The probe was further subjected to a binding reaction with 100 nM antibody for a binding time of 400 s, and the probe was then transferred to PBS and subjected to a dissociation reaction for 600 s. When the assay was finished, data from which the response value of a blank control had been deducted were fitted to a 1:1 Langmuir binding model using software, and then the kinetic constants for antigen-antibody binding were calculated.

Row | Binder | Koff/Koff(Xi-IgG)
8 | B7 | 1.74
9 | B8 | 0.59
10 | B9 | 1

Target: T2, antigen human CLDN18.2, His-tagged
Assay: BLI (Fortebio), His-tagged antigen on NTA probe; ratio to 52E22-xiIgG
Procedure: as §1

Row | Binder | Koff/Koff(Xi-IgG)
11 | B10 | 1
12 | B11 | 1.72
13 | B1 | 2.21
14 | B12 | 5.55

Target: T2, antigen human CLDN18.2, His-tagged
Assay: SPR (BIAcore), antibody captured by anti-human Fc, antigen as analyte
Procedure: Referring to the instructions provided in the Human Antibody Capture Kit (cat No. BR-1008-39, Lot 10261753) from GE Healthcare, the analytical channel and the control sample channel on a CM5 sensor chip were first saturated and coupled with the maximum amount of anti-human Fc antibody, then buffers containing anti-human CLDN18.2 chimeric antibodies, humanized antibodies or a control antibody IMAB362 at 7.5 μg/ml were allowed to flow through the analytical channel and uniformly distribute. Finally, antigen samples diluted in gradient (the initial concentration was 20 nM and diluted by 1:3 to get 8 concentrations, and the concentration 0.741 nM was set to be repeated) were allowed to flow through both the analytical channel and the sample channel, and the photoreactions upon the binding of antibody to antigen were measured. Subsequently, the association constant Kon and dissociation constant Koff and affinity constant KD of each antibody were finally obtained by instrument software fitting analysis.

Row | Binder | Kd [nM] | koff [s⁻¹] | kon [M⁻¹ s⁻¹]
15 | B10 | 1.11 | 0.000545 | 490000
16 | B1 | 1.18 | 0.000172 | 146000
17 | B9 | 6.99 | 0.000573 | 81900

Target: T2, antigen human CLDN18.2, His-tagged
Assay: BLI (Fortebio), His-tagged antigen on NTA probe, 100 nM antibody, 1:1 fit
Procedure: as §1

Row | Binder | Kd [nM] | Response | koff [s⁻¹] | kon [M⁻¹ s⁻¹]
18 | B10 | 0.0996 | 0.223 | 3.55e-05 | 357000
19 | B7 | 0.744 | 0.133 | 0.000198 | 266000
20 | B8 | 0.297 | 0.139 | 6.73e-05 | 227000
21 | B11 | 0.309 | 0.188 | 6.11e-05 | 198000
22 | B1 | 0.36 | 0.226 | 7.83e-05 | 218000
23 | B9 | 0.382 | 0.134 | 0.000114 | 298000
24 | B12 | 0.542 | 0.238 | 0.000197 | 363000

Target: T1, human CLDN18.2 expressed on cell …
Assay: flow cytometry on CHOK1 cells expressing human CLDN18.2, goat anti-human IgG secondary, normalised MFI
Procedure: The chimeric anti-human CLDN18.2 antibodies were diluted 2-fold in gradient from an initial concentration of 100 nM and solutions of each antibody of 16 concentrations were obtained. 10 μl of the solutions of each antibody of each concentration was added to a 384-well plate. CHOK1 cells expressing CLDN18.2 on the cell surface were collected by centrifugation for 5 min at 100 g at room temperature, and the cells were washed with PBS containing 0.5% BSA once and then were centrifuged for 5 min at 100 g at room temperature. The cells were resuspended at a density of about 2×10⁶ cells/ml, and 10 μl was added to each well of the 384-well plate to which the antibody had been added. After incubation for 1 hour at 4° C., fluorescently labeled secondary goat anti-human IgG antibody was added. After continued incubation for 1 hour at 4° C., the mean fluorescence readings of the cell populations were analyzed by a flow cytometer.

Row | Binder | EC50 (read off the curve) [nM] | binding result
25 | B13 | ~1 | –
26 | B14 | – | binds
